Laboratory results as given in IntAct's records for PubMed 38825040.

Target: lg3bp_human LGALS3BP (UniProt Q08380)
Sequence (Q08380 whole entry): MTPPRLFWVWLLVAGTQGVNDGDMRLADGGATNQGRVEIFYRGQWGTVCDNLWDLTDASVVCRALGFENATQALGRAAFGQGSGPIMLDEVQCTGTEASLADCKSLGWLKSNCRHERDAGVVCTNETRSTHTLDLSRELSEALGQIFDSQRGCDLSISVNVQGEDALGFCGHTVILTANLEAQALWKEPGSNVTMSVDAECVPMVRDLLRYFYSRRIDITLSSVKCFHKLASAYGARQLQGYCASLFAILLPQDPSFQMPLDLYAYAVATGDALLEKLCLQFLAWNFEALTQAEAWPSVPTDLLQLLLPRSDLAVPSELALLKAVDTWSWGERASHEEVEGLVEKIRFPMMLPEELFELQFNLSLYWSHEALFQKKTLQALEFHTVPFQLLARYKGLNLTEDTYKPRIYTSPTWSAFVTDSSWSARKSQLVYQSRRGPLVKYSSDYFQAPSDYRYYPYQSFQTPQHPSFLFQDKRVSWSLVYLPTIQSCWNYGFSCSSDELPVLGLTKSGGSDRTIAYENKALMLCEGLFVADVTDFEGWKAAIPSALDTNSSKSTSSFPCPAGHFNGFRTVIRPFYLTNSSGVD

Chain of Extracellular sulfatase Sulf-2 (Homo sapiens), Q8IWU5 S583A (Q8IWU5 whole entry S583A): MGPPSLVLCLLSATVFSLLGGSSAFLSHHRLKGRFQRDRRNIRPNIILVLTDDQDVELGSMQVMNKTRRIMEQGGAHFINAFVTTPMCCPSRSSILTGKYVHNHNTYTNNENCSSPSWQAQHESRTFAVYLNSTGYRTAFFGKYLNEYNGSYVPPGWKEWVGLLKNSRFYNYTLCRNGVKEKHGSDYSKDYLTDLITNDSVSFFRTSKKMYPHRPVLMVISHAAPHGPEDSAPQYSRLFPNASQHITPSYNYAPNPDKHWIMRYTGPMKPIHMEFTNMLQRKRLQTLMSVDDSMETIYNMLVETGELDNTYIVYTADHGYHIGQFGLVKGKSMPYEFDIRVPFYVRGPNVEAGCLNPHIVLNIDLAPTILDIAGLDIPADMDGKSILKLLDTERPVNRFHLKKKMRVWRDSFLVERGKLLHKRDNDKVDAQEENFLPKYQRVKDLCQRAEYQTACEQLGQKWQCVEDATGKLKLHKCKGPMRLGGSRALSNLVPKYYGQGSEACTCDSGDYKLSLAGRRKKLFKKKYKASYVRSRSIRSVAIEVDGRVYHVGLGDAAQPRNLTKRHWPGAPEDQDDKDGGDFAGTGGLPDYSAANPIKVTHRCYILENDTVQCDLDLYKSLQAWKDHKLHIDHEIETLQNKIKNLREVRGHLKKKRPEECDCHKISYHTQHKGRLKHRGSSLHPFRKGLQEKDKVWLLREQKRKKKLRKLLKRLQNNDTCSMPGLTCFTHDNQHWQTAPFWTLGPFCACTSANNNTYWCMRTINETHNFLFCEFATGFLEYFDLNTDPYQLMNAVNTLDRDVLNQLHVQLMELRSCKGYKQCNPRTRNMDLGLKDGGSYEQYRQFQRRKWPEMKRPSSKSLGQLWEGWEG

Substance: Extracellular sulfatase Sulf-2 (Homo sapiens), Q8IWU5 S583A
- effect of a mutation on the interaction: increasing interaction strength
